Source: patent publication US20030124121A1 (IMMUNEX, published 2003)

Columns and labels:
human IL-4 receptor [1] = target: T1, human IL-4 receptor (human, UniProt P24394 26-232, limits assumed); assay: hybridoma identification; assay not described
T1 construct: extracellular domain is 1 to 207 or -2 to 207 in that numbering; also called huIL-4R; IL-4Ralpha

human IL-4 receptor [2] = target: T1, human IL-4 receptor; assay: assay not described
human IL-4 receptor [3] = target: T1, human IL-4 receptor; assay: hybridoma screen for human gamma/kappa specific to IL-4R
From the text: The mouse was sacrificed, and spleen cells were extracted and fused with the murine myeloma cell line P3x63Ag8.653 (ATCC CRL 1580). A conventional PEG fusion protocol was followed. The fusion was screened for HuIgG and HuKappa, followed by a rescreen for human gamma and kappa specific to IL-4R. […] Techniques for altering (switching) the subclass/isotype of an antibody are known. […] Sequence information for a human IgG4 heavy chain is presented, for example, in Ellison et al. (DNA Vol. 1, no. 1, pp 11-18, 1981), which is hereby incorporated by reference herein.

B1: MAb 27A1 (antibody, IgG1, V domains shown)
VH: QVQLVESGGGVVQPGRSLRLSCSASGFTFSRYGMHWVRQAPGRGLEWVAIIWFEGNNQYYADSVKGRFTVSRDNSKNTLYLEMNSLRAEDTAVYYCARGKYYFDYWGQGTLVTVSS
VL: not shown
notes: Fully human antibody
- binding result (human IL-4 receptor [1]): binds

B2: MAb 63 (antibody, IgM, V domains shown)
VH: EVQVLESGGNLVQPGGSLRLSCAASGFTFSSYAMSWVRQAPGKGLEWVSSITGSGGSTYYADSVKGRFTISRDNSKNTLYLQMNSLRAEDTAIFYCAKDNRGFFHYWGQGTLVTVSS
VL: DIQMTQSPSSVSASVGDRVTITCRASQGISTWLAWYQHKPGKAPKLLIYVASSLQSGVPSRFSGSGSGTDFTLTISSLQPEDFATYYCQQANSFPFTFGPGTKVDIK
notes: Fully human antibody
- binding result (human IL-4 receptor [1]): binds

B3: MAb 1B7 (antibody, V domains shown)
VH: EVQVLESGGNLVQPGGSLRLSCAASGFTFSSYAMSWVRQAPGKGLEWVSSITGSGGSTYYADSVKGRFTISRDNSKNTLYLQMNSLRAEDTAIFYCAKDNRGFFHYWGQGTLVTVSS
VL: EIVLTQSPSSVSASVGDRVTITCRASQGISNRLAWYQQKPGKAPKLLIYIASILQRGVPSRFSGSGSGTDFTLTITRLQPEDFATYYCQQANSFPFTFGPGTKVDIK
notes: Derived from MAb 63; differs from it only in the light chain; heavy chain identical to MAb 63
- binding result (human IL-4 receptor [2]): binds

B4: MAb 5A1 (antibody, IgG1, V domains shown)
VH: EVQLVQSGGGLVHPGGSLRLTCAGSGFTFSNFVMHWVRQTPGQGLEWVSAIGTGGGTYYADSVKGRFTISRDNAKSSLYLQMNSLRAEDMAVYYCARDRPMVRGVIIDYFDYWGQGTLVTVSS
VL: EIVLTQSPATLSLSPGERATLSCRASQSVSSYLAWYQQKPGQAPRLLIYHASNRATGIPARFSGSGSGTDFTLTISSLEPEDFAVYYCQQRSNWPLTFGGGTKVEIK
notes: Fully human antibody
- binding result (human IL-4 receptor [1]): binds

B5: MAb 12B5 (antibody, human IgG1, V domains shown)
VH: EVQLVQSGGGLVHPGGSLRLSCAGSGFTFSRNAMFWVRQAPGKGLEWVSGIGTGGATNYADSVKGRFTISRDNAKNSLYLQMNSLRAEDMAVYYCARGRYYFDYWGQGTLVTVSS
VL: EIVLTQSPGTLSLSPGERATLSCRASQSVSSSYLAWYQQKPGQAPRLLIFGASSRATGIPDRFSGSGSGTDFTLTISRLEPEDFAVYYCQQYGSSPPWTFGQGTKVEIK
notes: also called clone 12B5
- binding result (human IL-4 receptor [3]): binds
